The source of these data is US20140348834A1 (published 2014).

Assay [1] has as its target T1, human IL-17A (human, UniProt Q16552 24-155).
T1 construct: Recombinant; biotinylated in the ELISA; also called hIL-17; hIL17A
Description: hIL17A ELISA.
T1 sequence (Q16552 24-155): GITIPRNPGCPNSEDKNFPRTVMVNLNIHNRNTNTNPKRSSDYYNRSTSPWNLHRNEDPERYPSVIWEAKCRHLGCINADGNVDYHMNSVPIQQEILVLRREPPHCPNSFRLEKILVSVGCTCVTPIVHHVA
Description: The following protocol is used to characterize the binding of IL-17 antibodies to human IL-17 by enzyme-linked immunosorbent assay (ELISA). […] Coat ELISA plate with 50 μl per well of Goat anti Mouse IgG-Fc at 2 ug/ml, overnight at 4° C. […] Wash plate 3×PBS/Tween. […] Add 50 μl Mab diluted to 1 μg/ml in PBS/0.1% BSA to appropriate wells. Incubate 1 hr at room temperature (RT). […] Wash plate 3× with PBS/Tween. […] Add 50 μl of serial diluted biotin-IL17 (human IL-17, IL-17A/F, cyno IL-17) to appropriate wells. Incubate 1 hr at room temperature (RT). […] Wash plate 3× with PBS/Tween. […] Incubate 1 hr at RT. […] Wash plate 3× with PBS/Tween. […] Stop reaction with 50 μl 2N H₂SO₄. […] Read absorbance at 450 nm.

The target of assay [2] is T2, human IL-17A (human, UniProt Q16552 24-155).
T2 construct: Purified recombinant; biotinylated in the ELISA; also called HuIL-17A; Hu IL-17A
As to the kind of experiment: SPR Biacore, captured binder.
T2 sequence (Q16552 24-155 limits assumed): as the sequence (Q16552 24-155) above
Description: (§1) The binding of antibodies to purified recombinant human, cyno, rat, mouse, rabbit IL-17 and human IL-17A/F were determined by surface plasmon resonance-based measurements with a Biacore® 3000 instrument (Biacore® AB, Uppsala, Sweden) using running HBS-EP (10 mM HEPES [pH 7.4], 150 mM NaCl, 3 mM EDTA, and 0.005% surfactant P20) at 25° C. […] Approximately 5000 RU of goat anti-mouse or anti-human IgG (Fcγ) fragment specific polyclonal antibody (Pierce Biotechnology Inc, Rockford, Ill.) diluted in 10 mM sodium acetate (pH 4.5) was directly immobilized across a CM5 research grade biosensor chip using a standard amine coupling kit according to manufacturer's instructions and procedures at 25 μg/ml. Unreacted moieties on the biosensor surface were blocked with ethanolamine. Modified carboxymethyl dextran surface in flowcell 2 and 4 was used as a reaction surface. Unmodified carboxymethyl dextran without goat anti-mouse or anti-human IgG in flow cell 1 and 3 was used as the reference surface. For kinetic analysis, rate equations derived from the 1:1 Langmuir binding model were fitted simultaneously to association and dissociation phases of all eight injections (using global fit analysis) with the use of Biaevaluation 4.0.1 software. Purified antibodies were diluted in HEPES-buffered saline for capture across goat anti-mouse or anti-human IgG specific reaction surfaces. Antibodies to be captured as a ligand (25 μg/ml) were injected over reaction matrices at a flow rate of 5 μl/min. The association and dissociation rate constants, kon (unit M-1s-1) and koff (unit s-1) were determined under a continuous flow rate of 25 μl/min. Rate constants were derived by making kinetic binding measurements at ten different antigen concentrations ranging from 10 nM to 200 nM. The equilibrium dissociation constant (unit M) of the reaction between antibodies and recombinant purified IL-17 antigens was then calculated from the kinetic rate constants by the following formula: KD=koff/kon. Binding was recorded as a function of time and kinetic rate constants are calculated. In this assay, on-rates as fast as 10⁶ M⁻¹ s⁻¹ and off-rates as slow as 10⁻⁶ s⁻¹ can be measured.

In the next assay the target is T3, human IL-17A/F (human, UniProt Q16552 24-155; Q96PD4 31-163).
T3 construct: Heterodimer of IL-17A and IL-17F, purified recombinant; also called HuIL-17A/F; Hu IL-17A/F
T3 sequence (Q16552 24-155 limits assumed, chain 1 of 2): as the sequence (Q16552 24-155) above
T3 sequence (Q96PD4 31-163 limits assumed, chain 2 of 2): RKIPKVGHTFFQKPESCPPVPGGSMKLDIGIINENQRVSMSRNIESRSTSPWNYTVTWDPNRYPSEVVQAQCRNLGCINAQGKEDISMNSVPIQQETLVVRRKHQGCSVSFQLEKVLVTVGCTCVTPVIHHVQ
As to the kind of experiment: SPR Biacore, captured binder.

The target in a further assay is cyno IL-17A (cynomolgus monkey, UniProt A0A2K5TTB0 24-155). As to the kind of experiment: SPR Biacore, captured binder.
cyno IL-17A, sequence (A0A2K5TTB0 entry or part of it): as the sequence (Q16552 24-155) above, with T3A, P8S, N34S, I77V, N78K, P104R counted along it

Description for cyno IL-17A: as §1
Description for human IL-17A/F: as §1

B1: IL17-h5C5.12 (antibody, V domains shown)
VH: EVQLVQSGAEVKKPGASVKVSCKASGYTFTDYEFHWVRQAPGQGLEWIGVIHPGNGGTAYNQNFRDRATLTADKSTSTAYMELSSLRSEDTAVYYCTRFLTYEGYFDYWGQGTLVTVSS
VL: EIVMTQSPATLSVSPGERATLSCKASQSVSIDVGWYQQKPGQAPRLLIYHASNRYTGIPARFSGSGSGTDFTLTISSLQPEDFAVYYCQQDYSSPYTFGQGTKLEIKR
notes: IgG; constant regions not specified
As to B1, the EC50 with human IL-17A [1] worked out at 0.23 nM.

B2: IL17-h5C5.13 (antibody, V domains shown)
VH: QVQLQQSGAELVRPGASVKLSCKALGYTFTDYEFHWVKQTPVHGLEWIGVIHPGNGGTAYNQNFRDKATLTADKSSSTAYMELSSLTSEDSGVYYCTRFLTYEGYFDYWGQGTALTVSS
VL: EIVMTQSPATLSVSPGERATLSCKASQSVSIDVGWFQQKPGQSPRLLIYHASNRYTGVPARFSGSGSGTDFTLTISSLQPEDFAVYFCQQDYSSPYTFGQGTKLEIKR
notes: as for B1
B2 registered an EC50 with human IL-17A [1] of 0.03 nM.

B3: IL17-h5C5.17 (antibody, V domains shown)
VH: EVQLVQSGAEVKKPGASVKVSCKASGYTFTDYEFHWVRQAPGQGLEWMGVIHPGNGGTAYNQNFRDRVTITADKSTSTAYMELSSLRSEDTAVYYCARFLTYEGYFDYWGQGTLVTVSS
VL: NIVMTQSPSSLSASVGDRVTITCKASQSVSIDVGWFQQKPGKSPKLLIYHASNRYTGVPSRFSGSGSGTDFTFTISSLQPEDFATYFCQQDYSSPYTFGQGTKLEIKR
notes: as for B1
The molecule B3 returned an EC50 in the assay with human IL-17A [1] of 0.03 nM.

B4: IL17-h5C5.5 (antibody, V domains shown)
VH: EVQLVQSGAEVKKPGASVKVSCKASGYTFTDYEFHWVRQAPGQGLEWMGVIHPGNGGTAYNQNFRDRVTITADKSTSTAYMELSSLRSEDTAVYYCARFLTYEGYFDYWGQGTLVTVSS
VL: DIQMTQSPSSLSASVGDRVTITCKASQSVSIDVGWYQQKPGKAPKLLIYHASNRYTGVPSRFSGSGSGTDFTFTISSLQPEDFATYYCQQDYSSPYTFGQGTKLEIKR
notes: as for B1
In turn, B4 returned an EC50 in the assay with human IL-17A [1] of 0.05 nM.

B5: IL17-h5C5.10 (antibody, V domains shown)
VH: QVQLQQSGAELVRPGASVKLSCKALGYTFTDYEFHWVKQTPVHGLEWIGVIHPGNGGTAYNQNFRDKATLTADKSSSTAYMELSSLTSEDSGVYYCTRFLTYEGYFDYWGQGTALTVSS
VL: EIVMTQSPATLSVSPGERATLSCKASQSVSIDVGWYQQKPGQAPRLLIYHASNRYTGIPARFSGSGSGTDFTLTISSLQPEDFAVYYCQQDYSSPYTFGQGTKLEIKR
notes: as for B1
With B5, the response with human IL-17A [1] was half-maximal at 0.05 nM (EC50).

B6: IL17-h5C5.6 (antibody, V domains shown)
VH: EVQLVQSGAEVKKPGASVKVSCKASGYTFTDYEFHWVRQAPGQGLEWIGVIHPGNGGTAYNQNFRDRATLTADKSTSTAYMELSSLRSEDTAVYYCTRFLTYEGYFDYWGQGTLVTVSS
VL: DIQMTQSPSSLSASVGDRVTITCKASQSVSIDVGWYQQKPGKAPKLLIYHASNRYTGVPSRFSGSGSGTDFTFTISSLQPEDFATYYCQQDYSSPYTFGQGTKLEIKR
notes: as for B1
The molecule B6 showed a 50% effective concentration (EC50) with human IL-17A [1] of 0.11 nM.

B7: IL17-TN-L7-G9 (antibody, V domains shown)
VH: EVQLLESGGGVVQPGRSLRLSCAASGFIFSNYGMHWVRQAPGKGLEWVAVISYDGSNKYYADSVKGRFTISRDNSKNTLYLEMNSLRPEDTAVYYCAKVGASGDYYYSYGLDVWGQGTTVTVSS
VL: QSGLTQPPSASGTPGQTVSISCSGSNSNIGSHSVNWYQQVPGAAPKLLMYGIGQRPSGVPDRFSVSQSGTSASLAISGLQSEDEADYYCATWDDSLGGYVFGSGTKVTVLG
notes: Fully human antibody
Take B7: the Kd came out at 0.28 nM in the assay with human IL-17A [2], 0.907 nM with human IL-17A/F and 2.07 nM with cyno IL-17A. Moreover, the koff with human IL-17A [2] is 8.65e-05 s⁻¹; with human IL-17A/F, 9.7e-05 s⁻¹; in the assay with cyno IL-17A, 0.000199 s⁻¹. Besides, the kon worked out at 309000 M⁻¹ s⁻¹ with human IL-17A [2], 107000 M⁻¹ s⁻¹ in the assay with human IL-17A/F and 96000 M⁻¹ s⁻¹ with cyno IL-17A.

B8: IL17-h5C5.1 (antibody, V domains shown)
VH: QVQLQQSGAELVRPGASVKLSCKALGYTFTDYEFHWVKQTPVHGLEWIGVIHPGNGGTAYNQNFRDKATLTADKSSSTAYMELSSLTSEDSGVYYCTRFLTYEGYFDYWGQGTALTVSS
VL: NIVMTQTPKFLLVSPGDRVTITCKASQSVSIDVGWFQQKPGQSPKLLIYHASNRYTGVPDRFTGSGYGTDFTFTVNTVQAEDLAVYFCQQDYSSPYTFGGGTKLELKR
notes: as for B1
On to B8, for which a half-maximal effect with human IL-17A [1] (EC50) was put at 1 nM.

B9: IL17-h5C5.7 (antibody, V domains shown)
VH: QVQLQQSGAELVRPGASVKLSCKALGYTFTDYEFHWVKQTPVHGLEWIGVIHPGNGGTAYNQNFRDKATLTADKSSSTAYMELSSLTSEDSGVYYCTRFLTYEGYFDYWGQGTALTVSS
VL: DIQMTQSPSSLSASVGDRVTITCKASQSVSIDVGWFQQKPGKSPKLLIYHASNRYTGVPSRFSGSGSGTDFTFTISSLQPEDFATYFCQQDYSSPYTFGQGTKLEIKR
notes: as for B1
Regarding B9, a half-maximal response with human IL-17A [1] (EC50) required 0.03 nM.

B10: IL17-h5C5.16 (antibody, V domains shown)
VH: QVQLQQSGAELVRPGASVKLSCKALGYTFTDYEFHWVKQTPVHGLEWIGVIHPGNGGTAYNQNFRDKATLTADKSSSTAYMELSSLTSEDSGVYYCTRFLTYEGYFDYWGQGTALTVSS
VL: NIVMTQSPSSLSASVGDRVTITCKASQSVSIDVGWFQQKPGKSPKLLIYHASNRYTGVPSRFSGSGSGTDFTFTISSLQPEDFATYFCQQDYSSPYTFGQGTKLEIKR
notes: as for B1
As for B10, a half-maximal effect with human IL-17A [1] (EC50) was put at 0.02 nM.

B11: IL17-h10F7.5 (antibody, V domains shown)
VH: EVQLVQSGAEVKKPGSSVKVSCKASGYTFTDYEIHWVRQAPGQGLEWMGVNDPESGGTFYNQKFDGRVTITADKSTSTAYMELSSLRSEDTAVYYCARYYRYESFYGMDYWGQGTTVTVSS
VL: DIQLTQSPSSLSASVGDRVTITCSASSSISYIYWFQQKPGKSPKRWIYATFELASGVPSRFSGSGSGTDYTLTISSLQPEDFATYYCHQRSSYPWTFGQGTKLEIKR
notes: as for B1
In the assay with human IL-17A [1], B11 yielded an EC50 of 0.06 nM.

B12: IL17-h10F7.1 (antibody, V domains shown)
VH: EVQLVQSGAEVKKPGSSVKVSCKASGYTFTDYEIHWVRQAPGQGLEWIGVNDPESGGTFYNQKFDGRATLTADKSTSTAYMELSSLRSEDTAVYYCTRYYRYESFYGMDYWGQGTTVTVSS
VL: QIVLTQSPAIMSASPGEKVTMTCSASSSISYIYWFQQKPGTSPKRWIYATFELASGVPARFSGSGSGTSYSLTISSMEAEDAATYYCHQRSSYPWTFGGGSKLEIKR
notes: Cloned into IgG expression vectors; constant regions not specified
Molecule B12 came in with an EC50 in the assay with human IL-17A [1] of 1.7 nM.

B13: IL17-h10F7.10 (antibody, V domains shown)
VH: EVQLVQSGAEVKKPGSSVKVSCKASGYTFTDYEIHWVRQAPGQGLEWMGVNDPESGGTFYNQKFDGRVTITADKSTSTAYMELSSLRSEDTAVYYCARYYRYESFYGMDYWGQGTTVTVSS
VL: EIVLTQSPDFQSVTPKEKVTITCSASSSISYIYWFQQKPDQSPKRWIYATFELASGVPSRFSGSGSGTDYTLTINSLEAEDAATYYCHQRSSYPWTFGQGTKLEIKR
notes: as for B1
In the case of B13, a half-maximal effect with human IL-17A [1] (EC50) was put at 0.04 nM.

B14: IL17-h10F7.8 (antibody, V domains shown)
VH: EVQLVQSGAEVKKPGSSVKVSCKASGYTFTDYEIHWVRQAPGQGLEWIGVNDPESGGTFYNQKFDGRATLTADKSTSTAYMELSSLRSEDTAVYYCTRYYRYESFYGMDYWGQGTTVTVSS
VL: EIVLTQSPDFQSVTPKEKVTITCSASSSISYIYWYQQKPDQSPKLLIKATFELASGVPSRFSGSGSGTDFTLTINSLEAEDAATYYCHQRSSYPWTFGQGTKLEIKR
notes: as for B1
As to B14, the response with human IL-17A [1] was half-maximal at 3.9 nM (EC50).

B15: IL17-h10F7.14 (antibody, V domains shown)
VH: EVQLVQSGAEVKKPGSSVKVSCKASGYTFTDYEIHWVRQAPGQGLEWMGVNDPESGGTFYNQKFDGRVTITADKSTSTAYMELSSLRSEDTAVYYCARYYRYESFYGMDYWGQGTTVTVSS
VL: EIVLTQSPSSLSASVGDRVTITCSASSSISYIYWFQQKPGKSPKRWIYATFELASGVPSRFSGSGSGTDYTLTISSLQPEDFATYYCHQRSSYPWTFGQGTKLEIKR
notes: as for B1
With B15, the concentration for a half-maximal effect (EC50) with human IL-17A [1] was determined as 0.13 nM.

B16: IL17-h10F7.7 (antibody, V domains shown)
VH: EVQLVQSGAEVKKPGSSVKVSCKASGYTFTDYEIHWVRQAPGQGLEWMGVNDPESGGTFYNQKFDGRVTITADKSTSTAYMELSSLRSEDTAVYYCARYYRYESFYGMDYWGQGTTVTVSS
VL: EIVLTQSPDFQSVTPKEKVTITCSASSSISYIYWYQQKPDQSPKLLIKATFELASGVPSRFSGSGSGTDFTLTINSLEAEDAATYYCHQRSSYPWTFGQGTKLEIKR
notes: as for B1
For the molecule B16, the EC50 with human IL-17A [1] came out at 0.05 nM.

B17: IL17-h10F7.16 (antibody, V domains shown)
VH: EVQLVQSGAEVKKPGSSVKVSCKASGYTFTDYEIHWVRQAPGQGLEWMGVNDPESGGTFYNQKFDGRVTITADKSTSTAYMELSSLRSEDTAVYYCARYYRYESFYGMDYWGQGTTVTVSS
VL: QIVLTQSPDFQSVTPKEKVTITCSASSSISYIYWFQQKPDQSPKRWIYATFELASGVPSRFSGSGSGTDYTLTINSLEAEDAATYYCHQRSSYPWTFGQGTKLEIKR
notes: as for B1
Consider B17, for which the EC50 in the assay with human IL-17A [1] was 0.09 nM.

B18: IL17-h10F7.3 (antibody, V domains shown)
VH: EVQLVQSGAEVKKPGSSVKVSCKASGYTFTDYEIHWVRQAPGQGLEWIGVNDPESGGTFYNQKFDGRATLTADKSTSTAYMELSSLRSEDTAVYYCTRYYRYESFYGMDYWGQGTTVTVSS
VL: DIQMTQSPSSLSASVGDRVTITCSASSSISYIYWYQQKPGKAPKRLIYATFELASGVPSRFSGSGSGTDFTLTISSLQPEDFATYYCHQRSSYPWTFGQGTKLEIKR
notes: as for B1
B18: a half-maximal response with human IL-17A [1] (EC50) required 0.05 nM.

B19: IL17-h10F7.12 (antibody, V domains shown)
VH: EVQLVQSGAEVKKPGSSVKVSCKASGYTFTDYEIHWVRQAPGQGLEWMGVNDPESGGTFYNQKFDGRVTITADKSTSTAYMELSSLRSEDTAVYYCARYYRYESFYGMDYWGQGTTVTVSS
VL: QIVLTQSPSSLSASVGDRVTITCSASSSISYIYWFQQKPGKSPKRWIYATFELASGVPSRFSGSGSGTDYTLTISSLQPEDFATYYCHQRSSYPWTFGQGTKLEIKR
notes: as for B1
For B19, the EC50 in the assay with human IL-17A [1] worked out at 0.14 nM.
